# Data reported in patent US7795009.
# Tested on: prothrombin
substance,measurement,value
Factor Xa,sensitized acceptor emission of the thrombin beacon as a function of time,This conversion resulted in a time-dependent increase of beacon signal
